Results on nine molecules are retold here after publication PMC11026163, “Structural basis for excitatory neuropeptide signaling” (Nature Structural & Molecular Biology, 2024).

Several values for one entry are separate records, joined by “and”; a condition that tells them apart may be missing. Equal values may be shown once. Non-standard residues stand in square brackets, D forms with d. No end group written: not given here. Cit = NC(=O)NCCC[C@H](N)C(=O)O

The term stoichiometry N denotes a count of units in the complex or per binding partner.

For assay [1], the target named is T1, FaNaC1 (WT) (Malacoceros fuliginosus, UniProt A0AAN0NP85).
T1 sequence (A0AAN0NP85 1-600): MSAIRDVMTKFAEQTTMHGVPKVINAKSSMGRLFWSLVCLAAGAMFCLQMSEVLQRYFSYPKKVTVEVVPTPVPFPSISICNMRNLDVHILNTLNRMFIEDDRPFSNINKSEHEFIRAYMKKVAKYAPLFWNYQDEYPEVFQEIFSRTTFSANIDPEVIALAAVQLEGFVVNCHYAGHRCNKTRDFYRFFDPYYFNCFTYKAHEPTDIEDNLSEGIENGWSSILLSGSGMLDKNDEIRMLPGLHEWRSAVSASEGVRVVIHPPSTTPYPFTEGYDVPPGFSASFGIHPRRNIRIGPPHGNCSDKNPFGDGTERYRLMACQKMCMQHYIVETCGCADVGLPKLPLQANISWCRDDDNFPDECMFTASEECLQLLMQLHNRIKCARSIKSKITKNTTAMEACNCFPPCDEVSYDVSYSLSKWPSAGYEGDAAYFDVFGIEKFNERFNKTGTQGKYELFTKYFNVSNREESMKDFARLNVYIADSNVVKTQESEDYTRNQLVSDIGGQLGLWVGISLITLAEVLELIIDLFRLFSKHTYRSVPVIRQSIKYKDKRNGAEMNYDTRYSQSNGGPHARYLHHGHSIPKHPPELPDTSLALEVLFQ
The assay is described as follows: Two-electrode voltage clamp, peptide-gated currents in Xenopus laevis oocytes expressing WT FaNaC1. Format: cell-based. The protocol:
(§1) FaNaC1 in a modified pSP64 plasmid vector (Supplementary Notes) was used for mutagenesis and messenger RNA preparation and injection into stage V/VI Xenopus laevis oocytes (EcoCyte Bioscience). Mutants were generated by partly overlapping primers (Supplementary Table 1 and ref. [75]), and channel-coding inserts were Sanger sequenced. […] NaCl was replaced with KCl, NH4Cl or H3CNH3Cl (Merck) where appropriate.
(§2) Current amplitudes were measured in Clampfit v.11 (Molecular Devices). N values refer to experiments performed on different oocytes. Data were analyzed in Prism v.9 (GraphPad) and fit with Prism v.9 variable-slope four-parameter nonlinear regression, yielding half-maximal effective activating/inhibiting concentrations (EC50/IC50). […] Mean ± standard error of the mean (s.e.m.) EC50/IC50 from fits to individual cells reported in Main. Currents shown in figures are further filtered (20 Hz) and decimated (50×) in Clampfit 11 for smaller file size.
For orientation: Two-electrode voltage clamp holds a large cell at a set potential and records current.

In assay [2] the test system is FaNaC1 H297S. Briefly: TEVC, FMRFa- and ASSFVRIa-gated currents at H297S channels. It counts as cell-based, Malacoceros fuliginosus. To be noted: normalized to maximum FMRFa-gated current. An excerpt:
(§3) Fig. 6 FaNaC1 gating mechanism. a, Overlay of ligand-free FaNaC1 (blue) and FaNaC1/FMRFa/diminazene (orange) structures. Adjacent subunit in darker shades. b, Magnified views of boxed regions, left to right: ligand binding site; palm domain; β-turn–TM2a/TM1 interactions. Selected side chains shown as sticks and labeled. c, Illustration of one subunit (left subunit in a) moving during gating: peripheral rolling, internal stasis and β-turn moving outward to allow channel expansion. α6 helix from adjacent subunit in gray. d, Top left and bottom, example recordings from oocytes expressing mutant H297S FaNaC1 channels (scale bars, x, 30 s; y, 1 µA). Top right, mean (± s.e.m., n = 5 oocytes) responses of H297S channels to FMRFa and ASSFVRIa normalized to maximum FMRFa-gated current (I/Imax-FMRFa), compared to WT channels. […]
(§4) Oocytes were clamped at −60 mV unless otherwise indicated, and currents were measured by two-electrode voltage clamp, as previously described, using a Warner OC-725C amplifier and HEKA LIH8 + 8 interface with Patchmaster 2x90.4 software (HEKA), sampling at 500 Hz or 1 kHz and filtering at 100 Hz. Current amplitudes were measured in Clampfit v.11 (Molecular Devices). […] Data were analyzed in Prism v.9 (GraphPad) and fit with Prism v.9 variable-slope four-parameter nonlinear regression, yielding half-maximal effective activating/inhibiting concentrations (EC50/IC50). […]

For assay [3], the target named is FMRFamide-gated sodium channel 1 (FaNaC1) from Malacoceros fuliginosus (Malacoceros fuliginosus). The assay is described as follows: cryo-EM structure; FaNaC1 in POPC:POPG (3:1) lipid nanodiscs, 20 mM HEPES pH 7.6, 150 mM NaCl; alone, or with FMRFa 30 µM or ASSFVRIa 100 µM added directly before freezing; C3 symmetry imposed.
The subject of another assay is ENaCs. To be noted: ENaCs possess asparagine at the 0′ position; cited from earlier work. The source says:
Given the drug’s effect on pore radius and its voltage-dependent block of currents, we hypothesized that this nonprotein density derives from partially unresolved or low occupancy diminazene molecules. […] We ...

Assay [4] deals with FaNaC1 H297S. Briefly: TEVC, diminazene block of constitutive current of H297S channels. It counts as cell-based, Malacoceros fuliginosus. Conditions: 30 µM diminazene, mean ± s.e.m., n = 7.
Text: as §3, §4

For assay [5], the target named is T1, FaNaC1 (WT). Briefly: TEVC, diminazene block of peak and sustained FMRFa-gated current, WT FaNaC1 in oocytes. Format: cell-based. To be noted: per oocyte. The protocol: as §1, §2
(a) 1 μM FMRF-gated currents with and without diminazene in an oocyte expressing wildtype (WT) FaNaC1. […] Scale bars: x, 5 s; y, 0.2 µA. (b) Mean ± SEM normalized peak (n = 4 oocytes) and sustained (n = 7 oocytes) current amplitude in the presence of increasing concentrations of diminazene. […] Scale bars: x, 5 s; y, 0.1 µA. Source data

In a further assay the test system is FaNaC1 G3′S. The assay is described as follows: TEVC, diminazene block of sustained FMRFa-gated current at mutant channel. Format: cell-based, Malacoceros fuliginosus. Conditions: block of Isus. The protocol: (§5) Fig. 5 FaNaC1/FMRFa/diminazene structure. a, Pore-lining residues in FaNaC1/FMRFa/diminazene structure (left) and pore radius for all four cryo-EM structures calculated in HOLE[53] (right). b, Top, diminazene structure (ionized at pH 7.4). Middle, peak (Ipeak) and sustained (Isus) FMRFa (3 µM)-gated currents through FaNaC1 in the absence and presence of diminazene (10 μM). Bottom, % block (individual data points, n = 3 oocytes at −60 mV, 4 at 10 mV, 3 at 80 mV; and means, bars) of Isus by diminazene at three different membrane potentials. c, Magnified view of FaNaC1/FMRFa/diminazene model, showing nonprotein cryo-EM density in the pore as mesh. d, Concentration-dependent block of Isus by diminazene at WT and mutant channels (mean ± s.e.m., n = 4 oocytes, except D0′N—see Source data). e, FMRFa-gated current amplitude (Vm = −60 mV; individual data points (n = 5) and means, bars) in extracellular solutions based on different cations. Source data
(§6) Given the drug’s effect on pore radius and its voltage-dependent block of currents, we hypothesized that this nonprotein density derives from partially unresolved or low occupancy diminazene molecules. […] We also generated mutant G2′S channels but saw no currents in oocytes injected with these RNAs (n = 8 over two batches of ooyctes). An additional helical turn higher, the S-1′A substitution caused constitutive current, as expected for mutating the TM2a-1′ degenerin position, but had no effect on diminazene potency (Fig. 5d and Extended Data Fig. 9c). […] Thus, we interpret our FaNaC1/FMRFa/diminazene structure as an FMRFa-gated, diminazene-blocked, open-channel conformation.
as §1
(§7) Oocytes were clamped at −60 mV unless otherwise indicated, and currents were measured by two-electrode voltage clamp, as previously described, using a Warner OC-725C amplifier and HEKA LIH8 + 8 interface with Patchmaster 2x90.4 software (HEKA), sampling at 500 Hz or 1 kHz and filtering at 100 Hz. Current amplitudes were measured in Clampfit v.11 (Molecular Devices). N values refer to experiments performed on different oocytes. Data were analyzed in Prism v.9 (GraphPad) and fit with Prism v.9 variable-slope four-parameter nonlinear regression, yielding half-maximal effective activating/inhibiting concentrations (EC50/IC50). In establishing EC50 values for activation by FMRFa, we waited 4 min between applications of increasing concentrations. […]

The test system of a further assay is FaNaC1 G6′S. Described as above. Format: cell-based, Malacoceros fuliginosus. To be noted: block of Isus. As to the method: as §5, §6, §1, §7
The subject of a further assay is FaNaC1 D0′N. The description is as above. It counts as cell-based, Malacoceros fuliginosus. Conditions: block of Isus. The protocol:
as §5, §6, §1, §7

The subject of the next assay is FaNaC1 S-1′A. The description is as above. Conditions: block of Isus. Format: cell-based, Malacoceros fuliginosus. The protocol:
as §5, §6, §1, §7

The target of assay [6] is FMRFamide-gated sodium channel 1 (FaNaC1) from Malacoceros fuliginosus (Malacoceros fuliginosus).
The target in assay [7] is FaNaC1 F129Q (Malacoceros fuliginosus).
In assay [8] the target is FaNaC1 F129L (Malacoceros fuliginosus).
For assay [9], the target named is FaNaC1 F129A (Malacoceros fuliginosus).
Assay [10] deals with FaNaC1 V122A (Malacoceros fuliginosus).
The target of assay [11] is FMRFamide-gated sodium channel 1 (FaNaC1) from Malacoceros fuliginosus (Malacoceros fuliginosus). This is another data set of the same source.
The target of assay [12] is FaNaC1 M238C modified by MTSET (Malacoceros fuliginosus).
The target of assay [13] is FaNaC1 F97C (Malacoceros fuliginosus).
The target of assay [14] is FaNaC1 F129C (Malacoceros fuliginosus).
Assay [15] addresses FaNaC1 M238C (Malacoceros fuliginosus).
Assay [16] concerns the target FaNaC1 F97C modified by MTSET (Malacoceros fuliginosus).
For assay [17], the target named is FaNaC1 F129C modified by MTSET (Malacoceros fuliginosus).
Where [18] appears, read: [Diminazene] 1e-7 M, 1 μM FMRF-gated current.

On to “FMRA–NH2 [FMRAa, FMRFa analog lacking the C-terminal F4 side chain]”, for which the activation of current entry at FaNaC1 (WT) [1] (100 μM peptide) is recorded as “barely activating detectable currents”.

Regarding “ASSFVRI-NH2 [ASSFVRIa, product of the FVRIamide precursor in several annelids]”, in the assay on FaNaC1 H297S [2], the “relative efficacy at H297S compared to WT” value is recorded as “increased”. The agonist type result at FaNaC1 (WT) [1] is recorded as “partial agonist”.

Molecule “FMRFamide-gated sodium channel 1 (FaNaC1) from Malacoceros fuliginosus (receptor)” came in with a stoichiometry N in assay [3] of 3.

In the case of `N=C(N)c1ccc(/N=N/Nc2ccc(C(=N)N)cc2)cc1` [diminazene], in the assay with ENaCs, the sensitivity to diminazene result is “insensitive”. Further, in the assay with FaNaC1 H297S [4], the “block of constitutive current” value worked out at 76 ± 5%. Further, the Remaining peak current on FaNaC1 (WT) [5] (setting [18]) was 0.9158 and 0.934 and 1.161 and 1.255; at FaNaC1 (WT) [5] ([Diminazene] 1e-6 M), 0.5053 and 0.783 and 0.8871 and 0.9636. Also, the Remaining sustained current at FaNaC1 (WT) [5] (setting [18]) is 0.6522 and 0.7647 and 0.9533 and 0.9846 and 0.7407 and 0.6744. The “effect of mutation on diminazene potency” value with FaNaC1 G3′S is given as “modestly reduced”; with FaNaC1 G6′S it was “drastically reduced”; with FaNaC1 D0′N, “decreased diminazene potency approximately tenfold”; with FaNaC1 S-1′A it was “no effect”.

For the molecule “FVRI–NH2 [FVRIa, four C-terminal residues of ASSFVRIa]”, on FaNaC1 (WT) [1], the “activity compared to parent peptide ASSFVRIa” value is reported as “very similar activity”.

In assay [6], FMQF-NH2 [FMQF-NH2] came in with an EC50 of peptide-gated current, two-electrode voltage clamp, Xenopus oocytes expressing WT FaNaC1 of 4500 nM.

In [7], H-FMRF-NH2 [FMRFamide (H-Phe-Met-Arg-Phe-NH2)] had a fold decrease of FMRFa potency (EC50 of gated current) against WT, two-electrode voltage clamp, Xenopus oocytes of 100 fold. Moreover, the EC50 of FMRFa-gated current, two-electrode voltage clamp, Xenopus oocytes in assay [8] was found to be 9000 nM; in assay [9] it was 18000 nM. The molecule also gave an EC50 of FMRFa-gated current, two-electrode voltage clamp, Xenopus oocytes (20-fold increase in potency) in assay [10] of 40 nM. For the same molecule, the EC50 of FMRFa-gated current, two-electrode voltage clamp, Xenopus oocytes expressing WT FaNaC1 in [11] worked out at 850 nM. Also, the EC50 of FMRFa-gated current with MTSET, two-electrode voltage clamp, Xenopus oocytes in [12] was 580 nM; in assay [16], 4000 nM; in assay [17], > 10000 nM. Besides, the EC50 of FMRFa-gated current without MTSET, two-electrode voltage clamp, Xenopus oocytes in assay [13] was determined as 250 nM; in assay [14], 5000 nM; in assay [15], 140 nM.

The molecule AMRF-NH2 [AMRF-NH2] gave an EC50 of peptide-gated current, two-electrode voltage clamp, Xenopus oocytes expressing WT FaNaC1 in [6] of 300 nM.

B1: FM(citrulline)F-NH2 (peptide)
peptide: FM[Cit]F-NH2
modifications: N-terminus assumed
SMILES: CSCC[C@H](NC(=O)[C@@H](N)Cc1ccccc1)C(=O)N[C@@H](CCCNC(N)=O)C(=O)N[C@@H](Cc1ccccc1)C(N)=O
With B1, in assay [6], the EC50 of peptide-gated current, two-electrode voltage clamp, Xenopus oocytes expressing WT FaNaC1 is 690 nM.
